Source: US20130142792A1

Tests used:
[1] = molecular target: RAGE ligand (not named in the glycoform binding study); assay: binding assay of RP-HPLC glycoform fractions; reference is the 3-glycan fraction; method and ligand not stated; data not shown
[2] = molecular target: RAGE ligand (not named in the glycoform binding study); assay: binding assay of RP-HPLC glycoform fractions; method and ligand not stated; data not shown
[3] = molecular target: RAGE ligand (not named in the glycoform binding study); assay: binding assay of RP-HPLC glycoform fractions; method and ligand not stated; reference sample; data not shown

| fold increase in binding against the 3 glycan fraction [1] [fold] | relative binding (percent of control RAGE fusion protein) [2] [%] | relative binding [3] [%] | Substance |
| --- | --- | --- | --- |
| 10 | 529 | – | 0-glycan RAGE fusion protein (RP-HPLC fraction of wild-type RAGE fusion protein) (Fc fusion) |
| – | – | 100 | control RAGE fusion protein (mixture of 67% 3-glycan and 22% 2 glycan RAGE fusion protein) (Fc fusion) |
